Test results as given in US20140004106A1.

How the values were obtained:
[1] = target: 28mer peptide of the CXCR5 antigen; experiment: Ag-ELISA; DS in PBS, 25°C, 3 months
[2] = target: 28mer peptide of the CXCR5 antigen; experiment: Ag-ELISA; DS in PBS, -20°C, 3 months
[3] = target: 28mer peptide of the CXCR5 antigen; experiment: Antigen-ELISA; PBS 155 mM pH 7.00, T0
[4] = target: 28mer peptide of the CXCR5 antigen; experiment: Antigen-ELISA; PBS 155 mM pH 7.50, T0
[5] = target: 28mer peptide of the CXCR5 antigen; experiment: Antigen-ELISA; Citrate 10 mM pH 5.50, T0
[6] = target: 28mer peptide of the CXCR5 antigen; experiment: Antigen-ELISA; Citrate 10 mM pH 6.00, T0
[7] = target: 28mer peptide of the CXCR5 antigen; experiment: Antigen-ELISA; Saline 150 mM pH 6.00, T0
[8] = target: 28mer peptide of the CXCR5 antigen; experiment: Antigen-ELISA; Histidine 10 mM pH 6.5, T0
[9] = target: 28mer peptide of the CXCR5 antigen; experiment: Antigen-ELISA; standard run with LA_09_004_2
[10] = target: 28mer peptide of the CXCR5 antigen; experiment: Antigen-ELISA; standard run with LA_09_004_6
[11] = target: 28mer peptide of the CXCR5 antigen; experiment: Antigen-ELISA; standard run with LA_09_004_7
[12] = target: 28mer peptide of the CXCR5 antigen; experiment: Antigen-ELISA; standard run with LA_09_004_8
[13] = target: 28mer peptide of the CXCR5 antigen; experiment: Antigen-ELISA; acetate 10 mM prototype A, T0
[14] = target: 28mer peptide of the CXCR5 antigen; experiment: Antigen-ELISA; histidine 10 mM prototype B, T0
[15] = target: 28mer peptide of the CXCR5 antigen; experiment: Antigen-ELISA; histidine 10 mM prototype D, T0
[16] = target: 28mer peptide of the CXCR5 antigen; experiment: Antigen-ELISA; standard run with LA_09_29D, T0
[17] = target: 28mer peptide of the CXCR5 antigen; experiment: Potency (Antigen ELISA); stored -20°C, initial
[18] = target: 28mer peptide of the CXCR5 antigen; experiment: Potency (Antigen ELISA); stored +25°C, initial
[19] = target: 28mer peptide of the CXCR5 antigen; experiment: Potency (Antigen ELISA); stored +5°C, 15 months
[20] = target: 28mer peptide of the CXCR5 antigen; experiment: Potency (Antigen ELISA); stored -20°C, 12 months
[21] = target: 28mer peptide of the CXCR5 antigen; experiment: Antigen-ELISA; PBS 155 mM, 1 h purged with air, 24 h
[22] = target: 28mer peptide of the CXCR5 antigen; experiment: Antigen-ELISA; PB 5 mM pH 6.50, after 1 week at +40°C
[23] = target: 28mer peptide of the CXCR5 antigen; experiment: Antigen-ELISA; PB 5 mM pH 7.00, after 1 week at +40°C
[24] = target: 28mer peptide of the CXCR5 antigen; experiment: Antigen-ELISA; PB 10 mM pH 7.00, after 1 week at +40°C
[25] = target: 28mer peptide of the CXCR5 antigen; experiment: Antigen-ELISA; TRIS 10 mM pH 7.5, after 1 week at +40°C
[26] = target: 28mer peptide of the CXCR5 antigen; experiment: Antigen-ELISA; Glycine 10 mM pH 7, after 1 week at +40°C
[27] = target: 28mer peptide of the CXCR5 antigen; experiment: Antigen-ELISA; PBS 155 mM pH 6.50, after 1 week at +40°C
[28] = target: 28mer peptide of the CXCR5 antigen; experiment: Antigen-ELISA; PBS 155 mM pH 7.50, after 1 week at +40°C
[29] = target: 28mer peptide of the CXCR5 antigen; experiment: Antigen-ELISA; Arginine 10 mM pH 6, after 1 week at +40°C
[30] = target: 28mer peptide of the CXCR5 antigen; experiment: Antigen-ELISA; Citrate 10 mM pH 6.00, after 1 week at +40°C
[31] = target: 28mer peptide of the CXCR5 antigen; experiment: Antigen-ELISA; Succinate 10 mM pH 5.00, after 1 week at +40°C
[32] = target: 28mer peptide of the CXCR5 antigen; experiment: Antigen-ELISA; Succinate 10 mM pH 6.00, after 1 week at +40°C
[33] = target: 28mer peptide of the CXCR5 antigen; experiment: Antigen-ELISA; PBS 155 mM, polyethylene low density, 24 h +40°C
[34] = target: 28mer peptide of the CXCR5 antigen; experiment: Antigen-ELISA; PBS 155 mM, clear glass type I + V2A piece, 24 h
[35] = target: 28mer peptide of the CXCR5 antigen; experiment: Antigen-ELISA; standard, repeated values in the 3 weeks -20°C
[36] = target: 28mer peptide of the CXCR5 antigen; experiment: ELISA potency (binding); 100 mg/mL, Arginine (20) + NaCl (2), T zero
[37] = target: 28mer peptide of the CXCR5 antigen; experiment: ELISA potency (binding); 100 mg/mL, Trehalose (60) + NaCl (2), T zero
[38] = target: 28mer peptide of the CXCR5 antigen; experiment: ELISA potency (binding); 100 mg/mL, Lysine (30) + Mannitol (15), T zero
[39] = target: 28mer peptide of the CXCR5 antigen; experiment: ELISA potency (binding); 100 mg/mL, Arginine (20) + Mannitol (15), T zero
[40] = target: 28mer peptide of the CXCR5 antigen; experiment: Antigen-ELISA; Citrate 10 mM pH 5.00, after mechanical stress 350 rpm 2.5 h
[41] = target: 28mer peptide of the CXCR5 antigen; experiment: Antigen-ELISA; Citrate 10 mM pH 6.00, after mechanical stress 350 rpm 2.5 h
[42] = target: 28mer peptide of the CXCR5 antigen; experiment: Antigen-ELISA; Citrate 10 mM pH 7.00, after mechanical stress 350 rpm 2.5 h
[43] = target: 28mer peptide of the CXCR5 antigen; experiment: ELISA potency (binding); 100 mg/mL, Sucrose (60) + Mannitol (15), 7 days at 40°C

EC50 % [1]: 108% | EC50 % [2]: 93% | EC50 % [3]: 74% | EC50 % [4]: 81% | EC50 % [5]: 112% | EC50 % [6]: 52% | EC50 % [7]: 96.2% | EC50 % [8]: 110% | EC50 % [9]: 100% | EC50 % [10]: 100% | EC50 % [11]: 100% | EC50 % [12]: 100% | EC50 % [13]: 112% | EC50 % [14]: 118% | EC50 % [15]: 169% | EC50 % [16]: 100% | EC50 value (in comparison to reference) [17]: 75% | EC50 value (in comparison to reference) [18]: 75% | EC50 value (in comparison to reference) [19]: 114% | EC50 value (in comparison to reference) [20]: 96% | EC50 % [21]: 84.3% | EC50 % [22]: 77% | EC50 % [23]: 68% | EC50 % [24]: 109% | EC50 % [25]: 184% | EC50 % [26]: 65% | EC50 % [27]: 115% | EC50 % [28]: 52% | EC50 % [29]: 99% | EC50 % [30]: 98% | EC50 % [31]: 157% | EC50 % [32]: 126% | EC50 % [33]: 104% | EC50 % [34]: 80.8% | EC50 % [35]: 100% | rel. potency [%] [36]: 144% | rel. potency [%] [37]: 110% | rel. potency [%] [38]: 88% | rel. potency [%] [39]: 117% | EC50 % [40]: 99% | EC50 % [41]: 136% | EC50 % [42]: 101% | rel. potency [%] [43]: 243%
B1: Lead CXCR5 Antibody (humanized IgG4 anti-CXCR5 antibody) (antibody, V domains shown)
VH: QVQLKESGPGLVAPSESLSITCTVSGFSLIDYGVNWIRQPPGKGLEWLGVIWGDGTTYYNPSLKSRLSISKDNSKSQVFLKVTSLTTDDTAMYYCARIVYWGQGTLVTVSA
VL: DIVMTQAAPSVAVTPGASVSISCRSSKSLLHSSGKTYLYWFLQRPGQSPQLLIYRLSSLASGVPDRFSGSGSGTAFTLRISRVEAEDVGVYYCMQHLEYPYTFGGGTKLEIKR
